Assay results taken from patent publication US20200377608A1 (ADAGENE, published 2020).

Molecular target: T1, Recombinant human CD137 protein (human, UniProt Q07011 24-186)
T1 construct: also called CD137 receptor; 4-1BB
Assay: competition ELISA against biotinylated CD137 ligand on coated human CD137

binding result: binds
B1: αCD137-AB1 (antibody, human IgG4 S228P, kappa, V domains shown)
VH: EVQLVESGGGLVQPGGSLRLSCAASGFSLSTGGVGVGWIRQAPGKGLEWLALIDWADDKYYSPSLKSRLTISRDNSKNTLYLQLNSLRAEDTAVYYCARGGSDTVIGDWFAYWGQGTLVTVSS
VL: DIQLTQSPSSLSASVGDRVTITCRASQSIGSYLAWYQQKPGKAPKLLIYDASNLETGVPSRFSGSGSGTDFTLTISSLQPEDFATYYCQQGYYLWTFGQGTKVEIKR
notes: also called AG10131; Hit ID 5365
